Laboratory results reported in article PMC3950718, “The RNA helicase RHAU (DHX36) suppresses expression of the transcription factor PITX1”.

T1: RHAU (full length) (UniProt Q9H2U1 1-1008)
T1 sequence: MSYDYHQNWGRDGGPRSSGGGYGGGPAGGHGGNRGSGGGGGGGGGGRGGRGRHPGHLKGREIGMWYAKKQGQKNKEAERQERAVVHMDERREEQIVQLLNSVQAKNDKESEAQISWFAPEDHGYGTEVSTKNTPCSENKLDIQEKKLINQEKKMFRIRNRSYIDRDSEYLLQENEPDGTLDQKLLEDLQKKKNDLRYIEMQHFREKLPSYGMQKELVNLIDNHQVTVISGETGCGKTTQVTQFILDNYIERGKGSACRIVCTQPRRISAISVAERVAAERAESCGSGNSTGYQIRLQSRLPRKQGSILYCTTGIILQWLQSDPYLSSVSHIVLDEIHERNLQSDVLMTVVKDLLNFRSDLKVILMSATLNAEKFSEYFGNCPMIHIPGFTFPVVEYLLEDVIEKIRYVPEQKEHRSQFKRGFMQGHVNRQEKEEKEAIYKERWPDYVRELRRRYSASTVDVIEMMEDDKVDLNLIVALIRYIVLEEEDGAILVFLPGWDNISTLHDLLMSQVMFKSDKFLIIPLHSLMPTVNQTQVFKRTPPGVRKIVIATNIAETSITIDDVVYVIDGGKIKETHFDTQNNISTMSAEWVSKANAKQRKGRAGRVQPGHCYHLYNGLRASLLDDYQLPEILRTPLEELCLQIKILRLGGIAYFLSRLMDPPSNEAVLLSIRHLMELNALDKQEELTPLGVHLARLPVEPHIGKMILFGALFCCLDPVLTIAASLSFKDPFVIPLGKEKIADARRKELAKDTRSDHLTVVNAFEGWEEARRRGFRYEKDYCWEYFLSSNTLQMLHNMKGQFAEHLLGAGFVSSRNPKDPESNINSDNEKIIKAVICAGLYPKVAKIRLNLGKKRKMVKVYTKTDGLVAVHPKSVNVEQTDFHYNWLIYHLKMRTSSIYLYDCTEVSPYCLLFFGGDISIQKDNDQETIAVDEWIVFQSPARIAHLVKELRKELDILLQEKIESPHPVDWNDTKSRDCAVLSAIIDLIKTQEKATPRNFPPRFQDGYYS

T2: RHAU53-105 (UniProt Q9H2U1 53-105)
T2 sequence: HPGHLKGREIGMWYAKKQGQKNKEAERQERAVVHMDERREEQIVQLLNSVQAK

T3: 6xHis-RHAU53-105 (UniProt Q9H2U1 53-105)
T3 sequence: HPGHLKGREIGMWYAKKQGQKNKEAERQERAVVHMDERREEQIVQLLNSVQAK


Key:
RHAU (full length) = molecular target: T1, RHAU (full length); experiment: EMSA; 150 nM RNA, 0-750 nM protein; RNA in 50 mM Tris pH 7.6, 100 mM KCl; EMSA as in ref 12/36 (150 nM RNA, 0-750 nM protein); pull-down binding buffer 50 mM Tris-acetate pH 7.8, 100 mM KCl, 10 mM NaCl, 3 mM MgCl2, 70 mM glycine, 10% glycerol, room temperature; conditions: protein: recombinant, label: 5' biotin
RHAU53-105 [1] = molecular target: T2, RHAU53-105; experiment: EMSA; 150 nM RNA, 0-750 nM protein; qualitatively lower affinity than full length; RNA in 50 mM Tris pH 7.6, 100 mM KCl; EMSA as in ref 12/36 (150 nM RNA, 0-750 nM protein); pull-down binding buffer 50 mM Tris-acetate pH 7.8, 100 mM KCl, 10 mM NaCl, 3 mM MgCl2, 70 mM glycine, 10% glycerol, room temperature; conditions: protein: recombinant; label: 5' biotin; G-quadruplex
6xHis-RHAU53-105 [2] = molecular target: T3, 6xHis-RHAU53-105; experiment: EMSA; RNA in 50 mM Tris pH 7.6, 100 mM KCl; EMSA as in ref 12/36 (150 nM RNA, 0-750 nM protein); pull-down binding buffer 50 mM Tris-acetate pH 7.8, 100 mM KCl, 10 mM NaCl, 3 mM MgCl2, 70 mM glycine, 10% glycerol, room temperature; conditions: protein: recombinant; tags: 6xHis; label: 5' biotin; no quadruplex (no NMM staining)
RHAU53-105 [3] = molecular target: T2, RHAU53-105; experiment: EMSA; 150 nM RNA, 0-750 nM protein; RNA in 50 mM Tris pH 7.6, 100 mM KCl; EMSA as in ref 12/36 (150 nM RNA, 0-750 nM protein); pull-down binding buffer 50 mM Tris-acetate pH 7.8, 100 mM KCl, 10 mM NaCl, 3 mM MgCl2, 70 mM glycine, 10% glycerol, room temperature; conditions: protein: recombinant; label: 5' biotin; no quadruplex (no NMM staining)
6xHis-RHAU53-105 [4] = molecular target: T3, 6xHis-RHAU53-105; experiment: EMSA; 150 nM RNA; affinity similar to untagged; RNA in 50 mM Tris pH 7.6, 100 mM KCl; EMSA as in ref 12/36 (150 nM RNA, 0-750 nM protein); pull-down binding buffer 50 mM Tris-acetate pH 7.8, 100 mM KCl, 10 mM NaCl, 3 mM MgCl2, 70 mM glycine, 10% glycerol, room temperature; conditions: protein: recombinant; tags: 6xHis; label: 5' biotin; G-quadruplex

Binder | binding result (RHAU (full length); G-quadruplex) | binding result (RHAU53-105 [1]) | binding result (6xHis-RHAU53-105 [2]) | binding result (RHAU53-105 [3]) | binding result (RHAU (full length); no quadruplex (no NMM staining)) | binding result (6xHis-RHAU53-105 [4])
GUUGGGGCGGGCGUUGGGUUUGGGGGGACG (structured_RNA) [PITX1 Q2] | binds | binds |  |  |  | 
GAGCGCGGAAGCGCGCGCGCGCGCGCGCGG (ssRNA) [PITX1 Q1Mut] |  |  | no binding | no binding | no binding | 
GAGCGGGGAAGGGCGCGGGCGCGGGCGCGG (structured_RNA) [PITX1 Q1] | binds | binds |  |  |  | binds
AGCGGGCAGUGCGGGCCUGGCGGGAGGUGGGGGAGG (structured_RNA) [PITX1 Q3] | binds | binds |  |  |  | 
